Source: patent US20240425609A1 (Regeneron, published 2024)

T1: mouse PD1 (mouse, UniProt Q02242 25-288)
T1 construct: whole, on cells; also called mPD1
T1 sequence (looked up): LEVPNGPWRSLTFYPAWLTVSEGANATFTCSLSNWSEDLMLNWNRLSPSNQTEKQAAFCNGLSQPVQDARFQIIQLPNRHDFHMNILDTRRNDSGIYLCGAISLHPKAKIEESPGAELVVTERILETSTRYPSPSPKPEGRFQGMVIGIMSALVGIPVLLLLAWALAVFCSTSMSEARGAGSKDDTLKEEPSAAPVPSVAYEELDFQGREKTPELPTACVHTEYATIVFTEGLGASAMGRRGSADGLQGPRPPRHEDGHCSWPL

T2: mouse CD20 (mouse, UniProt P19437 1-291)
T2 construct: whole, on cells; also called mCD20; murine CD20
T2 sequence (looked up): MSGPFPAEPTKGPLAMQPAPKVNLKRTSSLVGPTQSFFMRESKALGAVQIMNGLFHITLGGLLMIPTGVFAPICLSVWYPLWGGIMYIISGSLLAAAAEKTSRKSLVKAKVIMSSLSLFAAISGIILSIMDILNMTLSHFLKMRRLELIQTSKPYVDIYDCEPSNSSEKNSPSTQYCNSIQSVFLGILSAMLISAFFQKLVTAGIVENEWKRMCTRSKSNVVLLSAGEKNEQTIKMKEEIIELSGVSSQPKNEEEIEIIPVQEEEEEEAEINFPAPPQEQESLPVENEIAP


How the values were obtained:
mouse PD1 [1] = target: T1, mouse PD1; assay: flow cytometry on Jurkat/mPD1 cells
Experimental: (§1) Cells (HEK 293, MC38 over-expressing mCD20 or Jurkat over-expressing mPD1) were resuspended in FACS wash (PBS with 1% FBS) at 1×10⁸ cells/mL. The staining was performed in 1×10⁵ cells per well. The antibodies were diluted with a ratio of 1:5 from a starting concentration of 1.3×10⁻⁷ M. The diluted antibodies were then added into the wells containing cells. Cells were stained for 30 min at 2-8° C. and washed twice with FACS wash buffer. APC-conjugated goat anti-human IgG (Jackson Immuno Research, 109-607-003, 1:400) was added to stain the cells for 30 min at 2-8° C. Following washing, cells were fixed in 2% paraformaldehyde for 30 min at 2-8° C. After two washes, stained cells were analyzed using BD LSRFortessa™ FACS instrument. The results were analyzed by FlowJo. FSC/SSC gates were used to select mononuclear cells.

mouse CD20 = target: T2, mouse CD20; assay: flow cytometry on MC38/mCD20 cells
Experimental: as §1

mouse PD1 [2] = target: T1, mouse PD1; assay: cell-based or functional assay

EC50 (mouse PD1 [1])	Max MFI (mouse PD1 [1])	Max MFI (mouse CD20)	Max % inhibition, AP1-luciferase bioassay, 2.5 nM CD3 bsAb (mouse PD1 [2])	EC50 (mouse CD20)	IC50 (M), AP1-luciferase bioassay, 2.5 nM CD3 bsAb (mouse PD1 [2])	Binder
22.4 nM	16700 MFI	20300 MFI	11%	–	–	1 + 2 m20_mPL_1 (bispecific antibody, human IgG1, kappa) heavy: QVQLQQPGAELVRPGTSVKLSCKASGYTFTSYWMHWIKQRPGQGLEWIGVIDPSDNYTKYNQKFKGKATLTVDTSSSTAYMQLSSLTSEDSAVYFCAREGYYGSSPWFAYWGQGTLVTVSSASTKGPSVFPLAPSSKSTSGGTAALGCLVKDYFPEPVTVSWNSGALTSGVHTFPAVLQSSGLYSLSSVVTVPSSSLGTQTYICNVNHKPSNTKVDKKVEPKSCDKTHTCPPCPAPEAEGAPSVFLFPPKPKDTLMISRTPEVTCVVVDVSHEDPEVKFNWYVDGVEVHNAKTKPREEQYNSTYRVVSVLTVLHQDWLNGKEYKCKVSNKALPSSIEKTISKAKGQPREPQVCTLPPSRDELTKNQVSLSCAVKGFYPSDIAVEWESNGQPENNYKTTPPVLDSDGSFFLVSKLTVDKSRWQQGNVFSCSVMHEALHNRFTQKSLSLSPGK light: QIVMSQSPAILSASPGEKVTMTCRARSSVSYIHWYQQKPGSSPKPWIYATSNLASGVPGRFSGSGSGTSYSLTITRVEAEDAATYYCQQWSSKPPTFGGGTKLEIKRTVAAPSVFIFPPSDEQLKSGTASVVCLLNNFYPREAKVQWKVDNALQSGNSQESVTEQDSKDSTYSLSSTLTLSKADYEKHKVYACEVTHQGLSSPVTKSFNRGEC not shown
6.31 nM	6980 MFI	35300 MFI	33%	8.42 nM	6.5e-11 M	2 + 2 m20_mPL_3 (bispecific antibody, human IgG1, kappa) heavy: QVQLQQPGAELVRPGTSVKLSCKASGYTFTSYWMHWIKQRPGQGLEWIGVIDPSDNYTKYNQKFKGKATLTVDTSSSTAYMQLSSLTSEDSAVYFCAREGYYGSSPWFAYWGQGTLVTVSSASTKGPSVFPLAPSSKSTSGGTAALGCLVKDYFPEPVTVSWNSGALTSGVHTFPAVLQSSGLYSLSSVVTVPSSSLGTQTYICNVNHKPSNTKVDKKVEPKSCDKTHTCPPCPAPEAEGAPSVFLFPPKPKDTLMISRTPEVTCVVVDVSHEDPEVKFNWYVDGVEVHNAKTKPREEQYNSTYRVVSVLTVLHQDWLNGKEYKCKVSNKALPSSIEKTISKAKGQPREPQVCTLPPSRDELTKNQVSLSCAVKGFYPSDIAVEWESNGQPENNYKTTPPVLDSDGSFFLVSKLTVDKSRWQQGNVFSCSVMHEALHNRFTQKSLSLSPGKGGGGSGGGGSGGGGSQVQLQQPGAELVRPGTSVKLSCKASGYTFTSYWMHWIKQRPGQGLEWIGVIDPSDNYTKYNQKFKGKATLTVDTSSSTAYMQLSSLTSEDSAVYFCAREGYYGSSPWFAYWGQGTLVTVSSASTKGPSVFPLAPSSKSTSGGTAALGCLVKDYFPEPVTVSWNSGALTSGVHTFPAVLQSSGLYSLSSVVTVPSSSLGTQTYICNVNHKPSNTKVDKKVEPKSCD not shown light: QIVMSQSPAILSASPGEKVTMTCRARSSVSYIHWYQQKPGSSPKPWIYATSNLASGVPGRFSGSGSGTSYSLTITRVEAEDAATYYCQQWSSKPPTFGGGTKLEIKRTVAAPSVFIFPPSDEQLKSGTASVVCLLNNFYPREAKVQWKVDNALQSGNSQESVTEQDSKDSTYSLSSTLTLSKADYEKHKVYACEVTHQGLSSPVTKSFNRGEC
